According to publication PMC7614769, “Structural basis for Fc receptor recognition of immunoglobulin M” (Nature structural & molecular biology, 2023):

Target: pentameric IgM-Fc core containing Cμ4, Cμ3 and the J chain (human, UniProt P01871 106-433; P01591 23-159, N-linked glycosylation at Asn563)
Experiment: BLI; FcμR (20 μg/ml) captured on AMC (anti-mouse IgG-Fc capture) biosensors by the anti-FcμR antibody RR-16; full-length or proteolysed IgM 0.08-10 nM in solution; PBS, 0.005% Tween 20, 25 °C; apparent Kd from response against IgM concentration, 1:1 binding model
Details: both partners purified

B1: human FcμR ectodomain (receptor, UniProt O60667 17-251, looked up)
chain: LRILPEVKVEGELGGSVTIKCPLPEMHVRIYLCREMAGSGTCGTVVSTTNFIKAEYKGRVTLKQYPRKNLFLVEVTQLTESDSGVYACGAGMNTDRGKTQKVTLNVHSEYEPSWEEQPMPETPKWFHLPYLFQMPAYASSSKFVTRVTTPAQRGKVPPVHHSSPTTQITHRPRVSRASSVAGDKPRTFLPSTTASKISALEGLLKPQTPSYNHHTRLHRQRALDYGSQSGREGQG
notes: FcμR, human, ectodomain; Full-length human FcμR has 390 aa; 251 aa are extracellular: 17-aa signal peptide, 107-aa Ig-like domain, 127-aa stalk; Only the Ig-like domain is resolved in the cryo-EM maps; also called TOSO; FAIM3; source: bought: R&D, Catalog 9494-MU-050, lyophilized, suspended in PBS
Kd: 0.7 ± 0.1 nM
